Laboratory results reported in paper doi:10.1101/2022.11.08.515567.

Legend:
Assay in all cases: SEC
[1] = biological target: S2P-1208.H8 (ancestral Hu-1) (SARS CoV-2 (ancestral Hu-1 isolate)) (UniProt P0DTC2)
[2] = biological target: S2P.OmiBA.4/5-1208.H8 (SARS CoV-2 (Omicron BA.4/5))
[3] = biological target: S2P.OmiBA1-1208.H8 (SARS CoV-2 (Omicron BA.1))
[4] = biological target: S2P.OmiBA1-FHA (SARS CoV-2 (Omicron BA.1) | bacteriophage T4)

For “S2P-1208.H8 (ancestral Hu-1) (from UniProt P0DTC2 16-1208) (domain or fragment)”, the stoichiometry N [1] was 2.

With “S2P.OmiBA.4/5-1208.H8 (domain or fragment)” the stoichiometry N [2] was 3.

Work on S2P.OmiBA1-1208.H8 (domain or fragment) yielded a percent dissociated to dimer after a freeze-thaw cycle [3] of 15% and a stoichiometry N [3] of 3.

S2P.OmiBA1-FHA (domain or fragment) showed a stoichiometry N [4] of 3.
